± gives the standard deviation of the averaged measurements.
Tested on: ATP
Experiment: switch fluorescence ratio, 500 uM ATP over buffer (Cy3 cluster intensity, sum of 5 cycles each) (fold (ratio)); higher = stronger signal-on switching upon ATP binding; sequences stand for … in TCGTCGGCAGCGTCAGATGTGTATAAGAGACAGTTTTTTTTTTTTTTTTTTTTTTTTT…TC
Settings: aptamer strand: ATP DNA aptamer (quencher-CACCTGGGGGAGTATTGCGGAGGAAGG + anchor), 100 nM annealed; ATP concentration: 500 uM
Summary of the method: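 Values give the fluorescence ratio for each switch-domain sequence, averaged from per-cluster ratios of summed target-cycle to summed buffer-cycle Cy3 intensity. The Cy3-labelled switching-strand clusters sat on a modified Illumina MiSeq flow-cell, were annealed to 100 nM quencher-labelled ATP aptamer, and were imaged in selection buffer, then after 15 min with 500 uM ATP at 22 °C. Five cycles ran with NaOH stripping and re-annealing between them, and clusters outside 100-1000 RFU were excluded.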
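Further: ATP exposure 15 min at 22 °C before imaging.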

Sequence | switch fluorescence ratio
TTAAACGTTA | 1.32 ± 0.44
TTGGTGTCAG | 1.02 ± 0.018
GGTTGCGGTG | 0.94 ± 0.083
TTCATTGTTT | 1.01 ± 0.02
CCTCATTTTT | 0.988 ± 0.0099
TAGTTGGTCT | 0.974 ± 0.028
GTTTTAAAGT | 1.02 ± 0.017
TGGAATATTT | 1.03 ± 0.044
GTGATATAGC | 0.9807 ± 0.0071
TCGAAAAGGA | 1.02 ± 0.026
TACTTAGA | 1.04 ± 0.015
CGGGGTGAAA | 0.983 ± 0.029
TTTATGAGTT | 0.988 ± 0.029
AGGGGAGGAG | 0.974 ± 0.017
CCCGGGTCTG | 1.04 ± 0.035
TTGGTTTGTT | 0.982 ± 0.018
AAATCCAATA | 1.0106 ± 0.0007
TCTATACCAC | 1.06 ± 0.014
GGGAGGGCAT | 1 ± 0.027
ACAGGAGCGT | 1.1017 ± 0.00065
TTCGCGGCTA | 1.07 ± 0.016
TCCCTTGGTT | 1.05 ± 0.054
GCGCGACGGA | 0.9905 ± 0.0014
CGGTATTTAC | 1.04 ± 0.021
GATAGACGGT | 1.01 ± 0.047

Sequence | switch fluorescence ratio
ATGGGAAACG | 0.995 ± 0.014
GTAGCTGGGG | 0.98 ± 0.011
AATCACGGTG | 1.05 ± 0.052
GGAATGCCGG | 1.02 ± 0.021
GTCCGTGTTA | 0.994 ± 0.037
AGTATTGGAG | 1.004 ± 0.0023
GGGATGGGCT | 1.01 ± 0.014
TCCCCTGGTT | 1.64 ± 0.14
TTTGAATAGG | 1.01 ± 0.016
AGGATGTGAC | 1.01 ± 0.02
CATGTTGGTT | 0.992 ± 0.032
TAGGTCCGTT | 0.988 ± 0.031
GAAGGTTATA | 1 ± 0.047
AATGTAAGGT | 1.012 ± 0.006
ACGTAATGTC | 1.25 ± 0.12
TTGGGACTGG | 1.12 ± 0.14
TTATTATACG | 1.01 ± 0.054
GTTTTTGCCA | 1.01 ± 0.016
ACTGGTATTA | 1.02 ± 0.014
GGGTAGGGTC | 1.01 ± 0.022
TTAAGAGAGG | 1.01 ± 0.013
AAGATATAGA | 1.014 ± 0.0027
TGCGTCAGGG | 0.974 ± 0.015
TGCTGCTCAG | 1.01 ± 0.032
TTGTGTCGCT | 1.0031 ± 0.0004

Sequence | switch fluorescence ratio
TAACGGGATG | 1 ± 0.017
CATTGCTTTT | 0.991 ± 0.024
TAATAGTTT | 1.04 ± 0.033
CGTAAATTTA | 0.975 ± 0.018
TAATTTCTGC | 0.993 ± 0.018
ATATTCTAGA | 0.989 ± 0.029
GACTTAGGTA | 0.975 ± 0.027
AATAGAGTGG | 0.99 ± 0.024
TGCGTGCTGG | 0.985 ± 0.022
GGAGTATTTT | 1.12 ± 0.29
TATTAAACTC | 1.02 ± 0.017
TTTTGTCAAT | 1.1 ± 0.13
GCACTAAACT | 1.05 ± 0.057
TGCGTTTTTA | 1 ± 0.043
GACGTAACGG | 1.082 ± 0.0014
CGTGGGACTC | 1.1401 ± 0.00046
TTTTACTAAA | 1.06 ± 0.036
CGATGTCACG | 1 ± 0.033
TTGTATTAGT | 0.9835 ± 0.0093
GCGTACCAAT | 1.067 ± 0.0033
AGTTGAGAG | 1.03 ± 0.017
GATGACAGGG | 1.01 ± 0.12
GTCATGAGCG | 1 ± 0.012
AGATTTAGTA | 0.982 ± 0.06
TGGGGTATAG | 1.01 ± 0.018

Sequence | switch fluorescence ratio
AATATTTTCC | 1.04 ± 0.052
ACTACTGACA | 1.24 ± 0.04
CGAAGGGACG | 1.05 ± 0.081
AGGGTGGCGC | 1.02 ± 0.021
TGAATTTTGT | 0.978 ± 0.036
AAATAGACCG | 1 ± 0.0091
AAGGGAAGCG | 1.01 ± 0.039
ACGTGGTTAG | 1 ± 0.029
TTCGGAGAAT | 1.16 ± 0.23
CTTAGACCCC | 1.01 ± 0.02
AATGGTTGTG | 1 ± 0.022
GGGGGAACCT | 1.0549 ± 0.00095
TGAATTTTAT | 0.9885 ± 0.0073
TTGAGATTGG | 0.998 ± 0.03
GGGTAGCTCG | 0.987 ± 0.031
TATCAGTGGT | 0.997 ± 0.026
ATATAAGAAA | 1.03 ± 0.041
TACATGTCGG | 1.01 ± 0.0022
CAGCATATAT | 2.32 ± 0.053
GACATTTTGC | 1.05 ± 0.028
TTGCCGTGTA | 1.02 ± 0.031
TGAGAAAGGT | 0.965 ± 0.044
AGATAAAGGT | 0.995 ± 0.057
TTTACAGTGG | 1.05 ± 0.057
GGGCTAGGAG | 0.987 ± 0.014

Sequence | switch fluorescence ratio
TATAACGGAT | 1.01 ± 0.025
ATTATATGTG | 1.02 ± 0.027
TTAGTTATTC | 1.022 ± 0.0032
AGGCTGTGGG | 1.03 ± 0.015
ATGCAAGGGC | 1.08 ± 0.024
TGGGAACGGG | 0.983 ± 0.018
TTTATACTGT | 1.03 ± 0.024
CCTTTTTGT | 0.993 ± 0.027
TGCATTCTTT | 0.9999 ± 0.0052
TTGTGGCGGA | 1.0229 ± 0.00038
TTATTAGTTT | 0.994 ± 0.017
TTGTATAGGA | 0.998 ± 0.029
AGGAGGCGGG | 0.99 ± 0.035
TTGTAGAATG | 0.9821 ± 0.0066
ACCAGGACTA | 1.038 ± 0.0017
CGTTTGGGGA | 0.99 ± 0.015
GGGGGCAGTT | 1 ± 0.013
GGGAAAGCTG | 0.956 ± 0.096
TTCATGTGTT | 1.04 ± 0.037
AGGGACGAGT | 1.07 ± 0.11
CCCTAGGCTT | 1.13 ± 0.018
TCTACTTTAC | 1.39 ± 0.15
TGTGGGTGGG | 0.978 ± 0.025
GCCGCGGGGA | 1.04 ± 0.024
CATTTTCTAA | 1.04 ± 0.047

Sequence | switch fluorescence ratio
GATGAAAGGT | 1.002 ± 0.0047
AGTGAGGGGT | 0.97 ± 0.03
TACATCATGG | 1.04 ± 0.019
CCGTGGAAAC | 1.14 ± 0.026
TGCCGGCTCG | 1.01 ± 0.012
CTACGGGGCG | 1.01 ± 0.061
TGCGAATTCT | 1.03 ± 0.011
CTTCCCGCCG | 1.26 ± 0.057
GATGAAAAAA | 1.02 ± 0.037
GGGTCAAATA | 0.982 ± 0.011
TCGCGAGTAA | 1.04 ± 0.076
CTATGTTCGC | 0.954 ± 0.023
TTCTATATTT | 1.01 ± 0.055
TTATAAGGAA | 0.981 ± 0.015
GCAGGGTGTC | 1.08 ± 0.048
AGCTGTACTG | 1.09 ± 0.011
ACTTCAGGGG | 1.13 ± 0.1
ACTTCAGCAG | 1.12 ± 0.023
GATTTGAGCG | 0.9852 ± 0.0046
GTGTGTTGAT | 0.989 ± 0.029
CGGGGATTTC | 1 ± 0.027
TGATCATGCG | 1 ± 0.011
TATACGTGGG | 1.03 ± 0.046
TTTATAAAAC | 1.01 ± 0.051
ATTGTTTAGC | 1.01 ± 0.075

Sequence | switch fluorescence ratio
TTTTGGACAT | 0.993 ± 0.029
TAGGTTGAAC | 0.974 ± 0.05
GCTGCGAATT | 1.021 ± 0.01
AAAAGCACGA | 1.09 ± 0.2
GGGATCTGTT | 1.01 ± 0.019
AGGGGCTTAT | 1.01 ± 0.014
TCGAACGTTG | 1.034 ± 0.0026
CGCCGGGGAT | 1.004 ± 0.002
GGTCCTGTGG | 1.005 ± 0.006
TTGGATGTTG | 1.01 ± 0.034
AGGTAGAAGA | 0.97 ± 0.013
GTATGGGGTT | 0.9641 ± 0.0085
TTTAGGTATT | 0.9598 ± 0.0042
TAATAATTCT | 0.99 ± 0.019
TGGAATTGTG | 1.05 ± 0.058
TTATTATTGA | 0.989 ± 0.011
ACAATATAGA | 1.0126 ± 8.1e-07
TTTTGTGTTA | 0.997 ± 0.033
TGTGGTATGC | 1.01 ± 0.057
AAAATGCGCT | 0.975 ± 0.013
AATTTAAATG | 0.977 ± 0.03
GAGTTAGAAG | 0.9657 ± 0.0014
GTTTGTAGGC | 0.9641 ± 0.0017
GAGGGCTAAA | 1.06 ± 0.082
TGTTTCGTTT | 1 ± 0.055

Sequence | switch fluorescence ratio
CGTGTAGGGA | 1.06 ± 0.029
TTGACATGGG | 1 ± 0.029
TGAGGGGCAG | 0.984 ± 0.013
GGTATAGTTG | 0.993 ± 0.041
TGTGTGGTTT | 0.986 ± 0.036
TAAGGGGGAA | 1.03 ± 0.06
GGAATTCGAT | 1.004 ± 0.006
TCAGGGTTGA | 1.03 ± 0.044
AGGAGTTCTT | 0.989 ± 0.032
ACTACGTAAA | 0.997 ± 0.046
TTGGATGTAC | 1.14 ± 0.15
TGGGCTGCTT | 0.965 ± 0.017
AGACGGGGGT | 0.997 ± 0.028
GTGTTATTGC | 0.953 ± 0.011
AGATGGGGCA | 0.9774 ± 0.0024
ACATGACGGT | 1.06 ± 0.027
GGGGTTTTAT | 1.01 ± 0.018
AAAAGTGTTG | 0.948 ± 0.03
GCGGGGTATG | 0.9908 ± 0.008
TAAGGTTTTT | 1.03 ± 0.063
CGGTCCGGGT | 0.99721 ± 0.00018
GCAGGAATTT | 1 ± 0.038
TGAAGAAAGG | 0.981 ± 0.02
TATGGAGCGT | 1.04 ± 0.018
CGGCGATCGC | 1.04 ± 0.011

— the supplement of paper PMC10126150
